Data taken from patent publication US20160208004A1 (published 2016).
Residue numbers refer to the chain shown, from its start.

T1: IL-17RB.Fc (extracellular domain of human IL-17RB fused to the Fc region of human IgG) (human, UniProt Q9NRM6 18-292)
T1 construct: extracellular domain; also called HuIL-17RB: Fc; IL-17RB Fe; not shown: Fc region of human IgG1
T1 sequence (looked up): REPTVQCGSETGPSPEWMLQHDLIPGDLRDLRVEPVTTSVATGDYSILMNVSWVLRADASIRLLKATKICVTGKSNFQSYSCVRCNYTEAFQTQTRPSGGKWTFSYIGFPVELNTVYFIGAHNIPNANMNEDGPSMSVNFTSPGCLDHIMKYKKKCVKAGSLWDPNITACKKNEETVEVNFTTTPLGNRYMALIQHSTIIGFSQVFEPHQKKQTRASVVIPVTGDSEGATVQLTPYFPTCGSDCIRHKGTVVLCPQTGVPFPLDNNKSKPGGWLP

B1: 2.67.1 (antibody, V domains shown)
VH: QVQLVQSGAEVKKPGASVKVSCKASGYTLTRYGISWVRQAPGQGLEWMGWISAYNGNTNYAQKLQGRVTMTTDTSTSTAYMELRSLRSDDTAVYYCARRDYDILTGYYNGFDPWGQGTLVTVSS
VL: DIQMTQSPSSLSASVGDRVTITCRASQGIRNDLGWYQQKPGKAPKRLIYAASSLQSGVPSRFSGSGSGTEFTLTISSLQPEDFATYYCLQHKSYPLTFGGGTKVEIK
B2: 2.98.1 (antibody, V domains shown)
VH: B1 VH
VL: B1 VL
B3: 2.46.1 (antibody, V domains shown)
VH: B1 VH with Y27N, L29F, R31G, K63N
VL: B1 VL
B4: 2.225.1 (antibody, V domains shown)
VH: B1 VH with A9V
VL: B1 VL
B5: 3.1545.1 (antibody, V domains shown)
VH: EVQLVESGGGSVQPGGSLRLSCAASGFTFSSYSMNWVRQAPGKGLEWVSIISSRSSIIHYADSVKGRFTISRDNAKNSLYLQMNSLRDEDTAVYYCARPKVGGGMDVWGQGTTVTVSS
VL: DIQMTQSPSSLSASVGDRVTITCRASQGISNYLAWYQQKPGKFPELLIYAASTLQSGVPSRFSGSGSGTDFTLTISSLQPEDVATYYCQKYNRAPFTFGPGTKVDIK
B6: 4.357.1 (antibody, V domains shown)
VH: QVQLVQSGAEVKKPGASVKVSCKASGYTLTSYGISWVRQAPGQGLEWMGWISTYKGNTNYAQKLQGRVTMTTDTSTSTAYMELRSLRSDDTAVYYCARKQLVFDYWGQGTLVTVSS
VL: EIVMTQSPATLSVSPGERATLSCRASQSISSSLAWYQQKPGQAPRLLIYGASTRATGIPARFSGSGSGTEFTLTISSLQSENFAVYYCQQYDNWPLTFGGGTKVEIK
B7: 4.393.1 (antibody, V domains shown)
VH: B6 VH with L29F, T53A, K55N, N59K, A79V
VL: B6 VL with S31T, A51T, N82D, Y87F, N93I
B8: 1.185.1 (antibody, V domains shown)
VH: QVQLVESGGGVVQPGRSLRLSCAASGINFSSYGMHWVRQAPGKGLEWVAVIWYDGSNKHYADSVKGRFTISRDNSKNTLYLQMNSLRAEDTAVYYCARDTGVYWGQGTLVTVSS
VL: not shown
B9: Human IL-17RD.HIS (receptor, UniProt Q8NFM7 27-299, looked up)
chain: AGGSGRARGADTCGWRGVGPASRNSGLYNITFKYDNCTTYLNPVGKHVIADAQNITISQYACHDQVAVTILWSPGALGIEFLKGFRVILEELKSEGRQCQQLILKDPKQLNSSFKRTGMESQPFLNMKFETDYFVKVVPFPSIKNESNYHPFFFRTRACDLLLQPDNLACKPFWKPRNLNISQHGSDMQVSFDHAPHNFGFRFFYLHYKLKHEGPFKRKTCKQEQTTETTSCLLQNVSPGDYIIELVDDTNTTRKVMHYALKPVHSPWAGPIR
notes: R&D Systems product; not shown: HIS tag

These binders were tested against human IL-17RA (human, UniProt Q96F46 33-866) (assay: cell-based or functional assay).

Binder	% Inhib. of IL-5 production, TSLP treated human PBMC + IL-2 + IL-25, Expt. 1	% Inhib. of IL-5 production, TSLP treated human PBMC + IL-2 + IL-25, Expt. 2	% Inhib. of IL-5 production, TSLP treated human PBMC + IL-2 + IL-25, Expt. 3
B1	0%	13%	3%
B2	0%	79%	0%
B3	0%	6%	0%
B4	0%		0%
B5	0%	43%	0%
B6	0%		11%
B7	28%	72%	45%
B8	0%	41%	9%

Each binder was assayed against T1, IL-17RB.Fc (extracellular domain of …) (assay: co-immunoprecipitation on Protein G beads, Western blot).

Binder	binding result
B9	no binding (tested: 2 micrograms of each protein)

What follows are binders tested against T2, IL-17RA.Fc (extracellular domain of human IL-17RA fused to the Fc region of human IgG) (human, UniProt Q96F46 33-320) in the same assay as above.
T2 construct: extracellular domain; also called IL-17RA Fe; not shown: Fc region of human IgG1

Binder	binding result
B9	no binding (tested: 2 micrograms of each protein)
